Reference: patent publication US20020119154A1 (University of Pennsylvania, published 2002)

B1: recombinant human prolactin binding protein (rhPRLBP) (receptor, UniProt P16471 25-234, looked up)
chain: QLPPGKPEIFKCRSPNKETFTCWWRPGTDGGLPTNYSLTYHREGETLMHECPDYITGGPNSCHFGKQYTSMWRTYIMMVNATNQMGSSFSDELYVDVTYIVQPDPPLELAVEVKQPEDRKPYLWIKWSPPTLIDLKTGWFTLLYEIRLKPEKAAEWEIHFAGQQTEFKILSLHPGQKYLVQVRCKPDHGYWSAWSPATFIQIPSDFTMND
B2: human prolactin (hPRL) (ligand, UniProt P01236 29-227, looked up)
chain: LPICPGGAARCQVTLRDLFDRAVVLSHYIHNLSSEMFSEFDKRYTHGRGFITKAINSCHTSSLATPEDKEQAQQMNQKDFLSLIVSILRSWNEPLYHLVTEVRGMQEAPEAILSKAVEIEEQTKRLLEGMELIVSQVHPETKENEIYPVWSGLPSLQMADEESRLSAYYNLLHCLRRDSHKIDNYLKLLKCRIIHNNNC
notes: Serum PRL and added hPRL are treated as one molecule; also called serum PRL; plasma PRL

How the values were obtained:
human prolactin (hPRL) = molecular target: B2; experiment: cell-based or functional assay
[1] = molecular target: B1; experiment: surface plasmon resonance, various concentrations of rPRLBP; binding site I of PRL; rPRLBP in solution at various concentrations

Binder | rat Nb2-11C lymphoma cell proliferation (tritiated thymidine uptake), 50 pM hPRL, 0-100 nM rhPRLBP (human prolactin (hPRL)) [fold] | Kd [1] [nM]
B1 | 3 | –
B2 | – | 13.4
